Laboratory results published in patent US20250066503A1, “CELL INJURY INDUCING THERAPEUTIC DRUG FOR USE IN CANCER THERAPY” (CHUGAI SEIYAKU KABUSHIKI KAISHA, priority 2016, published 2025).
Substitutions are numbered along the chain they refer to.

Target: T1, human GPC3 (human, UniProt P51654 25-563)
T1 construct: range 25-563; soluble analyte; also called soluble human GPC3; glypican 3
Assay: SPR

T1 sequence (P51654 25-563 limits assumed): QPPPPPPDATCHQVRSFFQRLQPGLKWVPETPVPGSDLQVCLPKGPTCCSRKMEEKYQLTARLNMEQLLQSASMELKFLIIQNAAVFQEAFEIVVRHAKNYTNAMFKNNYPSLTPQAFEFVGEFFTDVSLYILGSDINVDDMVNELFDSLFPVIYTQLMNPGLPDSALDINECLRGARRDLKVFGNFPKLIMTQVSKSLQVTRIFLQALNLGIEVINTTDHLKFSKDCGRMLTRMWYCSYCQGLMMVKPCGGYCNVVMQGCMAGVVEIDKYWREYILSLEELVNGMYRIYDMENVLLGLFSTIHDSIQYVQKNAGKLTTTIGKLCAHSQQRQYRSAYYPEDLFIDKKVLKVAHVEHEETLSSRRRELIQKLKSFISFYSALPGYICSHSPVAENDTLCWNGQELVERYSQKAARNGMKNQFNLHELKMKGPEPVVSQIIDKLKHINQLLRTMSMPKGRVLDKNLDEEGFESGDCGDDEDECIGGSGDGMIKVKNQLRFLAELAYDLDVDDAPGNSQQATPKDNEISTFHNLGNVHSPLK

B1: H0610-G1dh/none-Hi-Kn010G3/L0249-k0 (antibody, V domains shown)
VH: QVQLVQSGAEVKKPGASVKVSCKASGYTFTDYEMHWIRQPPGQGLEWIGAIDGKTPDTAYSQKFKGRVTLTADKSTSTAYMELSSLTSEDTAVYYCTRFYSYTYWGQGTLVTVSS
VL: DIVMTQSPLSLPVTPGEPASISCRPSQSPVHSNRNTYIQWYQQKPGQAPRLLIYKVSNRFSGVPDRFSGSGSGTDFTLKISRVEAEDVGVYYCSQGTQVPYTFGQGTKLEIK
notes: one-arm
A Kd of 0.00686 nM was found for B1 in this work.

B2: H0610-G1dh/none-Hi-Kn010G3/L0264-k0 (antibody, V domains shown)
VH: B1 VH
VL: B1 VL with I38L, Q39H, S94A
notes: one-arm
A Kd of 0.219 nM was found for B2 in this work.

B3: H0610-G1dh/none-Hi-Kn010G3/L0265-k0 (antibody, V domains shown)
VH: B1 VH
VL: B1 VL with P25S, S94A
notes: one-arm
A Kd of 0.0087 nM was found for B3 in this work.

B4: H0610-G1dh/none-Hi-Kn010G3/L0263-k0 (antibody, V domains shown)
VH: B1 VH
VL: B1 VL with P25S, Q39H, S94A
notes: one-arm
A Kd of 0.564 nM was found for B4 in this work.

B5: H0610-G1dh/none-Hi-Kn010G3/L0269-k0 (antibody, V domains shown)
VH: B1 VH
VL: B1 VL with P25S, S94G
notes: one-arm
A Kd of 0.459 nM was found for B5 in this work.

B6: H0610-G1dh/none-Hi-Kn010G3/L0259-k0 (antibody, V domains shown)
VH: B1 VH
VL: B1 VL with P25S, Q39H, S94T
notes: one-arm
A Kd of 0.334 nM was found for B6 in this work.

B7: H0610-G1dh/none-Hi-Kn010G3/TR01L003-k0 (antibody, V domains shown)
VH: B1 VH
VL: B1 VL with P25S, P29L, I38L, Q39H, S94G, L109V, K112E
notes: one-arm
A Kd of 5.08 nM was found for B7 in this work.

B8: H0610-G1dh/none-Hi-Kn010G3/TR01L008-k0 (antibody, V domains shown)
VH: B1 VH
VL: B1 VL with R24Q, P25A, Q27E, P29L, I38L, Q39H, S61R, S94G
notes: one-arm
A Kd of 3.48 nM was found for B8 in this work.

B9: H0610-G1dh/none-Hi-Kn010G3/TR01L010-k0 (antibody, V domains shown)
VH: B1 VH
VL: B1 VL with P25S, P29L, I38L, Q39H, S61R, S94G, L109V, K112E
notes: one-arm
A Kd of 2.92 nM was found for B9 in this work.

B10: H0610-G1dh/none-Hi-Kn010G3/TR01L009-k0 (antibody, V domains shown)
VH: B1 VH
VL: B1 VL with P25S, P29L, I38L, Q39H, Q42L, A48S, R50Q, S61R, S94G
notes: one-arm
A Kd of 3.81 nM was found for B10 in this work.

B11: H0610-G1dh/none-Hi-Kn010G3/L0268-k0 (antibody, V domains shown)
VH: B1 VH
VL: B1 VL with P25S, S94V
notes: one-arm
A Kd of 0.0169 nM was found for B11 in this work.

B12: H0610-G1dh/none-Hi-Kn010G3/L0266-k0 (antibody, V domains shown)
VH: B1 VH
VL: B1 VL with P25S, S28P, I38L, Q39H, S94V
notes: one-arm
A Kd of 0.213 nM was found for B12 in this work.

B13: H0610-G1dh/none-Hi-Kn010G3/TR01L011-k0 (antibody, V domains shown)
VH: B1 VH
VL: B1 VL with R24Q, P25A, Q27E, P29L, I38L, Q39H, S61R, S94G, L109V, K112E
notes: one-arm
A Kd of 4.02 nM was found for B13 in this work.

B14: H0610-G1dh/none-Hi-Kn010G3/TR01L005-k0 (antibody, V domains shown)
VH: B1 VH
VL: B1 VL with P25S, P29L, I38L, Q39H, Q42L, A48S, R50Q, S94G, L109V, K112E
notes: one-arm
A Kd of 5.37 nM was found for B14 in this work.

B15: H0610-G1dh/none-Hi-Kn010G3/L0267-k0 (antibody, V domains shown)
VH: B1 VH
VL: B1 VL with I38L, Q39H, S94V
notes: one-arm
A Kd of 0.179 nM was found for B15 in this work.

B16: H0610-G1dh/none-Hi-Kn010G3/L0258-k0 (antibody, V domains shown)
VH: B1 VH
VL: B1 VL with P25S, S28P, I38L, Q39H, S94T
notes: one-arm
A Kd of 0.000352 nM was found for B16 in this work.

B17: H0610-G1dh/none-Hi-Kn010G3/L0261-k0 (antibody, V domains shown)
VH: B1 VH
VL: B1 VL with P25S, S94T
notes: one-arm
A Kd of 0.0107 nM was found for B17 in this work.

B18: H0610-G1dh/none-Hi-Kn010G3/L0262-k0 (antibody, V domains shown)
VH: B1 VH
VL: B1 VL with P25S, S28P, I38L, Q39H, S94A
notes: one-arm
A Kd of 0.211 nM was found for B18 in this work.
